Measurements reported in US20120015890A1 (ARGOS THERAPEUTICS, published 2012).
Positions count from the first letter of the chain named.

Tests used:
[1] = target: the molecule itself; test: SDS-PAGE with and without 2-mercaptoethanol; band at about 25 kDa without reducing agent
Procedure: The HPLC-purified recombinant human CD83ext protein (cloning and expression as described in example 1, purification as described in example 2 was analysed with the Laemmli SDS-PAGE system. To identify possible oligomeric forms of CD83 2-mercaptoethanol (ME) has been omitted from the sample buffer (2% SDS, 5% 2-Mercaptoethanol (ME), 10% Glycerol, 0.2 mM EDTA, 0.005% bromphenolblue, 62.5 mM Tris pH6.8). In the absence of this reducing agent, the intra- and interchain disulfide bonds of CD83 remain intact. The reduced and non-reduced protein samples were both incubated for 5 min at 95° C. and compared with each other by SDS-PAGE (see FIG. 7). During electrophoresis, the mobilities of oligomeric SDS-proteins is lower than those of their fully denatured SDS-polypeptide components. Without ME an upper band appears at the estimated size of a CD83-dimer (about 25 kDa), while the monomeric CD83 band (about 14 kDa) is fainting. Westernblot analysis using the anti-CD83 antibody CD83-1G11 (Lechmann et al., Protein Expression and Purification 24:445-452 (Mar. 2, 2002)) confirmed the specificity of the protein bands. Thus, hCD83ext is a disulfide-linked homodimeric protein.

[2] = target: the molecule itself; test: SDS-PAGE with and without 2-mercaptoethanol
Description: The purified hCD83ext_mut129_Cys to Ser was compared to purified hCD83ext by SDS-PAGE (see FIG. 9). […] Under non-reducing conditions no CD83-dimer could be detected with the mutant CD83 protein. So the 5th carboxyterminal cysteine of the extracellular CD83 domain is necessary for the creation of homodimers. Westernblot analysis confirmed specificity of the bands (data not shown).

B1: recombinant human CD83ext protein (soluble extracellular domain of human CD83) (receptor)
chain: GSPGTPEVKVACSEDVDLPCTAPWDPQVPYTVSWVKLLEGGEERMETPQEDHLRGQHYHQKGQNGSFDAPNERPYSLKIRNTTSCNSGTYRCTLQDPDGQRNLSGKVILRVTGCPAQRKEETFKKYRAEI
notes: Expressed in E. coli as a GST fusion and cleaved with thrombin; also called hCD83ext; soluble CD83
- binding result [1]: binds

B2: hCD83ext_mut129_Cys to Ser (receptor)
chain: B1 chain with C114S
notes: Expressed in E. coli as a GST fusion and cleaved with thrombin; Monomeric; also called hCD83ext mut129 Cys to Ser mutant
- binding result [2]: no binding
